The test deals with c-myc-tagged Sec8 (S. cerevisiae) (UniProt P32855). The test is described as follows: co-IP.

B1: Sec4 (natural protein)
chain: MSGLRTVSASSGNGKSYDSIMKILLIGDSGVGKSCLLVRFVEDKFNPSFITTIGIDFKIKTVDINGKKVKLQLWDTAGQERFRTITTAYYRGAMGIILVYDVTDERTFTNIKQWFKTVNEHANDEAQLLLVGNKSDMETRVVTADQGEALAKELGIPFIESSAKNDDNVNEIFFTLAKLIQEKIDSNKLVGVGNGKEGNISINSGSGNSSKSNCC
B1 yielded a percent of the total Sec4 associated (limit of detection) of less than 0.07%.

(Values after PMC2199927.)
